Measurements: paper PMC3942423 (Nature chemical biology, 2009)
One block for each molecule: values may come before it.

Assays:
GH92 enzymes = assay: EDTA inactivation and metal reactivation; type: biochemical, Bacteroides thetaiotaomicron; details: all the GH92 enzymes analyzed
[1] = substrate: O=[N+]([O-])c1ccc(O[C@H]2O[C@H](CO)[C@@H](O)[C@H](O)[C@@H]2O)cc1; assay: 4NP-Man hydrolysis kinetics; type: biochemical, Bacteroides thetaiotaomicron; details: other: substrate 4NP-Man
[2] = substrate: OC[C@H]1O[C@H](O[C@@H]2[C@H](O)[C@@H](O)O[C@H](CO)[C@H]2O)[C@@H](O)[C@@H](O)[C@@H]1O; assay: purified protein, by the assay type; details: other: most active mannobiose substrate, pH 7.0, 37.0 °C
[3] = substrate: OC[C@H]1O[C@H](O[C@H]2[C@H](O)[C@H](O)[C@@H](O)O[C@@H]2CO)[C@@H](O)[C@@H](O)[C@@H]1O; assay: mannobiose hydrolysis kinetics; type: biochemical, Bacteroides thetaiotaomicron; details: other: most active mannobiose substrate

recovery of activity after EDTA (GH92 enzymes): fully recovered
Molecule: [Ca+2] [calcium]

effect on enzyme activity (GH92 enzymes): inactivated
Molecule: O=C(O)CN(CCN(CC(=O)O)CC(=O)O)CC(=O)O [EDTA]

B1: Bt3858 (Bacteroides thetaiotaomicron VPI-5482) (protein)
chain: HTDQTPTKDFVDYVNPYIGNISHLLVPTYPTVHLPNSMLRVYPERGDYTSDRVNGLPVVVTSHRGSSAFNLSPVQGEVSRPIVSYSYDLENITPYSYSVYLDEADIQVEYAPSHQAGIYHISFGTEGDNALVVNTKNGKLVAEEKGVSGYQVIDNTPTKIYLYLETSQLPLRKGVLADGKVDMESKEGSAIALYYGSEKNLNLRYGISFISAEQAKKNLQRDITTYDVKAVADAGRRIWNKTLGKIVIEGGSEDEKEIFYTSLYRTYERMINLSEDGKYYSAFDGKIHEDGGVPFYTDDWIWDTYRATHPLRILIEPQKELDMIRSYIRMAEQSDRRWMPTFPEVTGDSHRMNGNHAVAVIWDAYCKGLKDFDLEAAYEACKGAITEKTLLPWLRCPLTELDKFYQEKGFFPALNPGEEETCKAVHSFERRQAVAVMLGNCYDNWCLAQIARTLNKTDDYKKFMRMSYTYRNVYNAETGFFHPKNKDGKFIEPFDYRYSGGQGARGYYGENNGWIYRWDVQHNPADLIALMGGQASFIERLNQTFNEPLGRSKFDFYHQLPDHTGNVGQFSMANEPCLHIPYLYNYAGQPWMTQKRIRVLLNQWFRNDLMGVPGDEDGGGMTAFVVFSMMGFYPVTPGSPTYNIGSPVFQSAKMEVGDGHYFEIIAENYAPDHKYIQSATLNGTPWNKPWFSHADIQNGGRLVLQMGDKPNKKWGIASDAVPPSSESLPE
Km ([1]; enzyme Bt3858, pH 7.0): 270 ± 65 µM | kcat ([1]; enzyme Bt3858, pH 7.0): 0.000417 ± 1.67e-05 s⁻¹ | kcat/Km ([1]; enzyme Bt3858, pH 7.0): 1.57 M⁻¹ s⁻¹ | Km ([2]; enzyme Bt3858): 1400 ± 170 µM | kcat ([2]; enzyme Bt3858): 40 s⁻¹ | kcat/Km ([2]; enzyme Bt3858): 28300 M⁻¹ s⁻¹

B2: Bt1878 (Bacteroides thetaiotaomicron VPI-5482) (protein)
chain: ETKDYTQYVNTFIGAADNGHTFPGACYPFGMIQTSPVTGAVGWRYCSEYTYQDSLIWGFTQTHLNGTGCMDLGDILVMPVTGTRARAWDAYRSHFPKDKEAATPGYYTVELSDPQVKAELTASIHAALHRYTYHKADSASLLIDLQHGPAWREEQYHSQVNSCEVNWEDAQTLAGHVNNTVWVDQDYFFVMKFNRPVIDSLYLPMGETEKGKRIIATFDLKPGDELMMKVALSTTSVEGAKKNLQAEIPDWNFDGVKLAAHDEWNSYLSRMDVEGTDDEKTNFYTCFYHALIQPNQISDVDGMYRNAADSIVKAGTGTFYSTFSLWDTYRAAHPFYTLMVPERVDDFVNSLIEQGEVQGFLPIWALWGKENFCMIGNHGVSVIAEAYRKGFRGFDAERAFNMVKKTQTVSHPLKSDWEVYTKYGYFPTDLTKAESVSSTLESVYDDYAAADMARRMGKEEDAAYFAKRADYYKNLFDSQTNFMRPRKADGTWKSPFNPSDVGHAESTGGDYTEGNAWQYTWHVQHDVPGLIALFGGEEPFLNKLDSLFTVKLETTQADVTGLIGQYAHGNEPSHHVTYLYALAGRPERTQELIREIFDTQYKNKPDGLCGNDDCGQMSAWYMFSAMGFYPVDPVSGDYVFGAPQLPKIVLHLADGKTFTVIAENLSKEHKYVDSITLNGEPYTKNTISHEDILKGGTLVYKMK
Km ([1]; enzyme Bt1878, pH 7.0): 900 ± 130 µM | kcat ([1]; enzyme Bt1878, pH 7.0): 0.00133 ± 8.33e-05 s⁻¹ | kcat/Km ([1]; enzyme Bt1878, pH 7.0): 1.48 M⁻¹ s⁻¹ | Km ([2]; enzyme Bt1878): 2000 ± 380 µM | kcat ([2]; enzyme Bt1878): 0.283 s⁻¹ | kcat/Km ([2]; enzyme Bt1878): 140 M⁻¹ s⁻¹

B3: Bt3965 (Bacteroides thetaiotaomicron VPI-5482) (protein)
chain: MAQTEKLTDYVNPFVGTDGYGNVYPGAQIPFGGIQISPDTDSRFYDAASGYKYNHLTLMGFSLTHLSGTGIPDLGDFLFIPGTGEMKLEPGTHEDPDQGYRSRYSHDKEWASPNYYAVELADYGVKAEMTSGVRSGMFRFTYPESDNAFIMIDMNHTLWQSCEWSNLRMINDSTITGYKLVKGWGPERHVYFTATFSKKLTGLRFVQDKKPVIYNTSRFRSSYEAWGKNLMACISFDTKAGEEVTVKTAISAVSTDGARNNMKELDGLTFNELRAKGEALWEKELGKYTLTADRKTKETFYTSAYHAALHPFIFQDSDGQFRGLDKNIEKAEGFTNYTVFSLWDTYRALHPWFNLVQQEVNADIANSMLAHYDKSVEKMLPIWSFYGNETWCMIGYHAVSVLADMIVKEVKGFDYERAYEAMKTTAMNSNYDCLPEYREMGYVPFDKEAESVSKTLEYAYDDYCIAQAAKKLGKEDDYHYFLNRALSYQTLIDPETKYMRGRDSKGDWRTPFTPVAYQGPGSVHGWGDITEGFTMQYTWYVPQDVQGYINEAGKELFRKRLDELFTVELPDDIPGAHDIQGRIGAYWHGNEPCHHVAYLYNYLKEPWKCQKWIRTIVDRFYGNTPDALSGNDDCGQMSAWYMFNCIGFYPVAPSSNIYNIGSPCAEAITVRMSNGKNIEMTADNWSPKNLYVKELYVNGKKYDKSYLTYDDIRDGVKLRFVMSGKPNYKRAVSDEAVPPSISLPEKTMKYKSSIGF
kcat ([3]; enzyme Bt3965, pH 7.0): 1.48 ± 0.113 s⁻¹ | kcat/Km ([3]; enzyme Bt3965, pH 7.0): 183 M⁻¹ s⁻¹ | kcat ([1]; enzyme Bt3965, pH 7.0): 0.233 ± 0.00667 s⁻¹ | kcat/Km ([1]; enzyme Bt3965, pH 7.0): 233 M⁻¹ s⁻¹

B4: Bt4093 (Bacteroides thetaiotaomicron VPI-5482) (protein)
chain: GDYVHQVNTLIGTKGTGLTSGYLYPGATYPYGMVQFTPSYFSKRSGFVINQLSGGGCEHMGNFPTFPVKGKLKMSPDNILNYRINVSEEKGHAGYYEAMVQEDIKAKLTVTERTGMASYEYPADQQYGTIIIGGGISATPIEQAAIVITAPNKCEGYAEGGNFCGLRTPYKVYFVAEFDTDAFETGTWKREELMPNTTFAEGEYSGVYFTFDVNKKKNIQYKIGVSYVSVENARENLKAENAEWDFQKIQNQAEAKWNHYLGMIEVEGTNPDRTTQFYTHLYRSFIHPNVCSDVNGEYMGADFRVHKSRSKHYTSFSNWDTYRTQIQLLSMLDPEVASDIVISHQLFAEQSGGSFPRWVMANIETGVMQGDPTPILIANAYAFGARNYDPKPIFKIMRKGAEEPGSKSQDVETRPGLKQYLDKGYYNASIQLEYTSADFAIGQFALHAVGDEFASWRYFHFARSWKNLYNSDTGWLQSRNPDGSWKSLGEDFRESTYKNYFWMVPYDIAGLVEIIGGKEKAEKRLDEFFTRLDAGYNDAWFASGNEPSFHIPWIYNWIGRPYKTQEIINRVLNEQYSSKIDGLPGNDDLGTMGAWYVFACIGLYPEIPGVGGFTVNTPIFSSVKVHLKKGDIVIKGGSEKDIYIKSMKLNGKSYESTWIDWDQLNSGATIEYRTSGKPDMKWGAKVVPPSFP
Km ([3]; enzyme Bt4093, pH 7.0): 35000 ± 2400 µM | kcat ([3]; enzyme Bt4093, pH 7.0): 1.33 ± 0.065 s⁻¹ | kcat/Km ([3]; enzyme Bt4093, pH 7.0): 38.3 M⁻¹ s⁻¹ | Km ([1]; enzyme Bt4093, pH 7.0): 1300 ± 190 µM | kcat ([1]; enzyme Bt4093, pH 7.0): 0.0112 ± 0.000817 s⁻¹ | kcat/Km ([1]; enzyme Bt4093, pH 7.0): 9.08 M⁻¹ s⁻¹

B5: Bt3530 (Bacteroides thetaiotaomicron VPI-5482) (protein)
chain: MTPSVAQNTKYVNLFIGTSGDNGQVAPGAAAPFGMVCVCPDNDPRSHAGYDYAVTKVSGISVNRLSGVGCSGGGGNLRIRPVAPSQELHIKKSREKATPGYYSTAFTNGIKTELTATNAMAVERYKFPRSLSAALWIDFASTFEDVATCHYKRISETCIEGYVQAKNVCGHGCYKLYFSLNTSQPFQLEEQKETTACLTFGKKVRSVEVRIGLSALSSELASWECARWEKMDFEDVKSRTADQWEKQLSAIDVKGGKKDDRVIFYTSLYRTYLSPADVSSPDGAYLGTDGKVYISEDFRYYSNWSLWDTFRTKFPLLVLTEPAKMRDMATSLIHLYATGKKDWSTGFESTPTVRTEHAVILLLDAYRKGITNLDFRKGYAGMKQEMERLPMRSPDQKMESAYDLWAMAKIAEIIGEKADSEQYRQRSVSLFEETWKKEFMNVTPAFEVMKNNGLYQGTRWQYRWAAPQYIDKMIEWVGQDSLRLQLTYFFDHHLYNQGNEPDIHVPYLFNRLGAPEKTQQIVRSLMTEPMIHKYGGNSEFKTPYLGKAFKNAPEGYSPEMDEDDGTMSAWYVFGAMGFYPLLVGDEYYDLTSPLFDRVLLRLTNGNVLTIQTEGRKKKDAPIKSIHFNGKKIADYRISHNELIKGGELIYNYK
kcat ([3]; enzyme Bt3530, pH 7.0): 0.001 ± 8.33e-05 s⁻¹ | kcat/Km ([3]; enzyme Bt3530, pH 7.0): 1.58 M⁻¹ s⁻¹

B6: Bt4073 (Bacteroides thetaiotaomicron VPI-5482) (protein)
chain: GVVTEDLIPTDYVNPFIGASTSVGAAGVYHGLGKTFPGATTPYGMVQVSPNTITGGDNSSGYSDEHKTIEGFAFTQMSGVGWFGDLGNFLVMPTTGELQKIAGKEDGSIKGYRSSYDKATETAKAGYYSVELTDYKIKVESSATPHCGILQFTFPSNEQSRIQIDLARRVGGTSTSQYVKVLDDYTIQGWMKCTPDGGGWGNGEGNSDYTVYYYAQFSKPLSNYGFWSADIPDEWVRKRDEVVSIPYLTRISQAPVIKDKKELEGKHLGFFTEFPTKEGEQVEMKVGISFVDMEGAANNFKQEIASKNFAQVKQEASDLWNKELSRIRISGGTDDEKTVFYTSLYHTMIDPRIYTDVDGRYIGGDKKVHEQDGTFTKRTIFSGWDVFRSQFPLQAMINPRLVSDALNSLITMADQSRREYYERWELLNSYSGCMIGNPALSVLADAYMKGIRTYDVEKAYQYAVNTSAKFGNDSLGYTPEPLSISYTLEYAYADWCVAQLAKALGKEEDAKRFYEKGQAYRNMFDAEKGWFRPRNADGSWKAWPENALTEEWYGCIESNAYQQGWFVPHDVPGMVELMGGKEEVIANLTNLFDHTPSDMLWNDYYNHANEPVHFVPFLFNQLDVPWYTQKWTRYICKNAYANKVEGIVGNEDVGQMSAWYILAASGIHPSCPGNTRMEITSPVFDKVEFNLDSKYHQGKVFTIIAHNNNTNNLYIQKALLNGKEYNKCYLDFAEIAAGGTLELFMGDKPNTEWGVLSNI
Km ([3]; enzyme Bt4073, pH 7.0): 270 ± 49 µM | kcat ([3]; enzyme Bt4073, pH 7.0): 183 ± 9.33 s⁻¹ | kcat/Km ([3]; enzyme Bt4073, pH 7.0): 683000 M⁻¹ s⁻¹ | Km ([1]; enzyme Bt4073, pH 7.0): 1800 ± 210 µM | kcat ([1]; enzyme Bt4073, pH 7.0): 0.0045 ± 0.000233 s⁻¹ | kcat/Km ([1]; enzyme Bt4073, pH 7.0): 2.33 M⁻¹ s⁻¹
